Measured values published in publication PMC3430690 (PLoS ONE, 2012).

Experiments:
[1] = biological target: 3xFlag-LRRK2 T1348N GTP deficient binding mutant, full-length (human) (UniProt Q5S007); assay: immunogold labelling + negative-stain transmission electron microscopy; purified 3xFlag proteins diluted to 5 ng/ul in 20 mM Tris-HCl pH 7.5, 150 mM NaCl, 0.02% Tween 20 or Triton X-100; uranyl acetate stain; anti-Flag M2 primary and 5 nm gold secondary antibody; distances between gold particles and particle diameters measured
3xFlag-LRRK1 = biological target: T1, 3xFlag-LRRK1 (Homo sapiens, UniProt Q38SD2); assay: pulldown from cell lysate on ATP-agarose, competed by free ATP; format: binding; conditions: ATP-depleted lysate, pH 7.4, 5 mM MgCl2, 4°C; competed by 1 mM ATP, not GTP; kinase domain site
T1 construct: homodimer
T1 sequence (Q38SD2 28-2015): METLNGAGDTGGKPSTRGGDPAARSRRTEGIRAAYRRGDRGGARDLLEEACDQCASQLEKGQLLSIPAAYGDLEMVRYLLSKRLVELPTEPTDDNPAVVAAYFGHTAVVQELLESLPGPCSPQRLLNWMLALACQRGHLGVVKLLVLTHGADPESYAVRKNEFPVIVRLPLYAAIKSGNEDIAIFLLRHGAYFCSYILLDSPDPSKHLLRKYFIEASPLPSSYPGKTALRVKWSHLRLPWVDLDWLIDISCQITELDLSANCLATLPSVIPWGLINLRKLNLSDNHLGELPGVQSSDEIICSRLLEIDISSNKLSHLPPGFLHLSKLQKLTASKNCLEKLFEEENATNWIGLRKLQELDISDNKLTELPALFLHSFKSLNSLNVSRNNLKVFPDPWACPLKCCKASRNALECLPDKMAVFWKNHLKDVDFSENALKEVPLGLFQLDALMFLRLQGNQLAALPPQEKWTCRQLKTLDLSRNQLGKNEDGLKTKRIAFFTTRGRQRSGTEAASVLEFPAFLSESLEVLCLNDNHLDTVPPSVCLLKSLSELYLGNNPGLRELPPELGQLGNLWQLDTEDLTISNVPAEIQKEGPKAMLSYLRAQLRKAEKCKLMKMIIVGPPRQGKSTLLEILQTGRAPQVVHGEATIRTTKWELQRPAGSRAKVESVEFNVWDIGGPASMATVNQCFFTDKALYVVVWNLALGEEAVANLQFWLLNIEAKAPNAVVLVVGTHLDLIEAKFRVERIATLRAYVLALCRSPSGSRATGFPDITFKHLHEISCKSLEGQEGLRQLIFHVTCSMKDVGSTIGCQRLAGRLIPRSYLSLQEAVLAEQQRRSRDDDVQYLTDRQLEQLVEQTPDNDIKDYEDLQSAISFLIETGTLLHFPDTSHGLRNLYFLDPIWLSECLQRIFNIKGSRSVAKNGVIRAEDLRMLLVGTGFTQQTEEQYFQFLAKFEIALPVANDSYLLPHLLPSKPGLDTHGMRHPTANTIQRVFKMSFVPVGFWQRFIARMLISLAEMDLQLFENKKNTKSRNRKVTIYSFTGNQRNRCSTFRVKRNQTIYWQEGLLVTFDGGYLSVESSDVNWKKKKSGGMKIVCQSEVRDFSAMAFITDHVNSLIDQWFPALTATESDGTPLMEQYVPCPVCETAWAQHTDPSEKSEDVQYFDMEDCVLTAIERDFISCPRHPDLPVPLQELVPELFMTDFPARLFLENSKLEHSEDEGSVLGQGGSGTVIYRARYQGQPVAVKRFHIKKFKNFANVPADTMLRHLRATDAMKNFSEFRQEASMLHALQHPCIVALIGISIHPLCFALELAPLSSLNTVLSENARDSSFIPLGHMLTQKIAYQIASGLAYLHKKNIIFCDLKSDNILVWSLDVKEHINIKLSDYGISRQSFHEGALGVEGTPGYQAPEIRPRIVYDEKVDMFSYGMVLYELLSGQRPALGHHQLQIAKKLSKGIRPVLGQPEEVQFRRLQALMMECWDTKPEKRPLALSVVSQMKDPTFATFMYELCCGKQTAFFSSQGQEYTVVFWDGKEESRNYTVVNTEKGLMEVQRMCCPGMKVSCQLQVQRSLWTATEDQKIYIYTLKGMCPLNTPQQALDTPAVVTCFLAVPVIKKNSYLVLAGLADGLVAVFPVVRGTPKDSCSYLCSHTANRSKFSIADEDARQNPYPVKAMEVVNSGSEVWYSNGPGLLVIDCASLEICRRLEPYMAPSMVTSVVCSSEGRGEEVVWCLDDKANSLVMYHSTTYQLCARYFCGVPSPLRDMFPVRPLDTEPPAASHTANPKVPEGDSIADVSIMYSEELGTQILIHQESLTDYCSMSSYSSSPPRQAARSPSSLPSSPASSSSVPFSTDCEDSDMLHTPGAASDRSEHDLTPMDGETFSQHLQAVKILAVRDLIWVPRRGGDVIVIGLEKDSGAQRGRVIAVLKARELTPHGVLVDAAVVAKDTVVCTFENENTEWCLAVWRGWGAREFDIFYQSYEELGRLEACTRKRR

3xFlag-LRRK2 = biological target: T2, 3xFlag-LRRK2 (Homo sapiens, UniProt Q5S007); assay: as above; format: binding; conditions: ATP-depleted lysate, pH 7.4, 5 mM MgCl2, 4°C; competed by 1 mM ATP, not GTP; kinase domain site
T2 construct: homodimer
T2 sequence (Q5S007 whole entry, the tested form may be a part): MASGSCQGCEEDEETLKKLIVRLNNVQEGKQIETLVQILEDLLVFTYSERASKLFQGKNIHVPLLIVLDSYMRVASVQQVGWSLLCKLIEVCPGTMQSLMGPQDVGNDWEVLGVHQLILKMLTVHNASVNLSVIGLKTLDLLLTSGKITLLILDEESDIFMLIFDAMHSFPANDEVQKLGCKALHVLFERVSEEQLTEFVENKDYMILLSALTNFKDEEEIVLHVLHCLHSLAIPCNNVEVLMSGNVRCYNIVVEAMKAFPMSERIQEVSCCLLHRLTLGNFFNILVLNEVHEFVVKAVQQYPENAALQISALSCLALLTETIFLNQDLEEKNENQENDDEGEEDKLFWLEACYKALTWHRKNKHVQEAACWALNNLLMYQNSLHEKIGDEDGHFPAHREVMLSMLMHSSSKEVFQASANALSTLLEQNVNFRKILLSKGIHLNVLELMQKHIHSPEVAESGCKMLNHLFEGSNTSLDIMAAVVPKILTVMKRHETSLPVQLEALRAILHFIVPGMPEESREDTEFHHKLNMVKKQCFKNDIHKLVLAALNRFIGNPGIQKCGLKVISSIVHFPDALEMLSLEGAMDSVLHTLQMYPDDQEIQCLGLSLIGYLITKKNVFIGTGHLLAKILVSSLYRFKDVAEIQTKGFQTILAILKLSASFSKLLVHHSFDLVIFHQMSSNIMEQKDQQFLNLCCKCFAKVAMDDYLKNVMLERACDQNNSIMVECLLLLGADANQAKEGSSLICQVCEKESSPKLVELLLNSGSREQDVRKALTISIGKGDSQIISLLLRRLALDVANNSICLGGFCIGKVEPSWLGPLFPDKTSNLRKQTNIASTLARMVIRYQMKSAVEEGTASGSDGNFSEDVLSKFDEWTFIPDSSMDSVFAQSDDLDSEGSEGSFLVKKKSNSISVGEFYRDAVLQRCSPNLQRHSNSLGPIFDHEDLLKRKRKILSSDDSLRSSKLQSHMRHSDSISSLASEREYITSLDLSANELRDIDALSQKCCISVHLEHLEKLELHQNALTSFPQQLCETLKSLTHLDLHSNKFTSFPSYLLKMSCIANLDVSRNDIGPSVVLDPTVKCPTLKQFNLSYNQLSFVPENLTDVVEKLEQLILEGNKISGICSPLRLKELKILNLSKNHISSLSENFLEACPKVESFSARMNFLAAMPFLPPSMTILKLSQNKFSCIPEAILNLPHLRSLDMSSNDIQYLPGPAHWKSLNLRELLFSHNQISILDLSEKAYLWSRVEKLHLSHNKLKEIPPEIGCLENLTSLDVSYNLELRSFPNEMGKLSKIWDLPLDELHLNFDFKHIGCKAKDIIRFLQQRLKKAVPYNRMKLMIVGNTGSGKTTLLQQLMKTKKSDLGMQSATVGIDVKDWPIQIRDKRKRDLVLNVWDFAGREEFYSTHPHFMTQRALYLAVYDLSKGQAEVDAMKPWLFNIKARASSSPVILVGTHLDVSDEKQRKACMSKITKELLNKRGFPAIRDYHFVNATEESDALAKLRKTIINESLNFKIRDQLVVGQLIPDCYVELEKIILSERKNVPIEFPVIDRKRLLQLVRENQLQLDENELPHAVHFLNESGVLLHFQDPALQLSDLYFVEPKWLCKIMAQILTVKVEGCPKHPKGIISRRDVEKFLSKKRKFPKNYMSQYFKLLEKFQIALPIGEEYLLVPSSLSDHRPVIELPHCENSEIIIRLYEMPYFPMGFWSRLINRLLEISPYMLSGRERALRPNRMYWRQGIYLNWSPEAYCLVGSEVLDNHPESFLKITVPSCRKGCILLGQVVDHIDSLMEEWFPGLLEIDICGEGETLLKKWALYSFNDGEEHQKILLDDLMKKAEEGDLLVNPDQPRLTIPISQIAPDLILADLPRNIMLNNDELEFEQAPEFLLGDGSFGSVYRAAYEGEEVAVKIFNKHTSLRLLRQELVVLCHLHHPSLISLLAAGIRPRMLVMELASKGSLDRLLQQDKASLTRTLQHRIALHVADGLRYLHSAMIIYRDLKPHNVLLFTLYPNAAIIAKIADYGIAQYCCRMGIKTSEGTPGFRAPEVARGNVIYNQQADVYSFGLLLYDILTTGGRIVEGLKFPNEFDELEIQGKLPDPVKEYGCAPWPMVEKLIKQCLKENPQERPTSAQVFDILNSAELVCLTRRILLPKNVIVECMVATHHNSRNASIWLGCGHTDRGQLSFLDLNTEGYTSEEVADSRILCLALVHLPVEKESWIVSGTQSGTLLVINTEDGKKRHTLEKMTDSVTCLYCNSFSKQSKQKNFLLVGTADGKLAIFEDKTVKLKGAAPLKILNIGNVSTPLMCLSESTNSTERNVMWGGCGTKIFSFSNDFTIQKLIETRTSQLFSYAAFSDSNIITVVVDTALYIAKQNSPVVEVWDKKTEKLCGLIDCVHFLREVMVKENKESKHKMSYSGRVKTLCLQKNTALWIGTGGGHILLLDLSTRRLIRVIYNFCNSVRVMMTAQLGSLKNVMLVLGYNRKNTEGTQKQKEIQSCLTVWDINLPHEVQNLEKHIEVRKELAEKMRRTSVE

[2] = biological target: 3xFlag-LRRK1 K650A GTP deficient binding mutant, full-length (human) (UniProt Q38SD2); assay: immunogold labelling + negative-stain transmission electron microscopy; purified 3xFlag proteins diluted to 5 ng/ul in 20 mM Tris-HCl pH 7.5, 150 mM NaCl, 0.02% Tween 20 or Triton X-100; uranyl acetate stain; anti-Flag M2 primary and 5 nm gold secondary antibody; distances between gold particles and particle diameters measured
[3] = biological target: 3xFlag-LRRK2 K1906M kinase dead mutant, full-length (human) (UniProt Q5S007); assay: as above
[4] = biological target: 3xFlag-LRRK1 wild-type (leucine-rich repeat kinase 1), full-length (human) (UniProt Q38SD2); assay: as above
[5] = biological target: 3xFlag-LRRK2 G2019S pathogenic mutant, full-length (human) (UniProt Q5S007); assay: as above; conditions: remark: other sources report otherwise
[6] = biological target: the molecule itself; assay: as above

Molecule: 3xFlag-LRRK2 T1348N GTP deficient binding mutant, full-length, Q5S007 1-2527
- stoichiometry N [1]: 2

Molecule: Nc1ncnc2c1ncn2[C@@H]1O[C@H](COP(=O)(O)OP(=O)(O)OP(=O)(O)O)[C@@H](O)[C@H]1O [ATP]
- pulldown from cell lysate on ATP-agarose, competed by free ATP (3xFlag-LRRK1): we confirm binding of both proteins to ATP using different ATP agarose beads
- pulldown from cell lysate on ATP-agarose, competed by free ATP (3xFlag-LRRK2): we confirm binding of both proteins to ATP using different ATP agarose beads

Molecule: 3xFlag-LRRK1 K650A GTP deficient binding mutant, full-length (from UniProt Q38SD2 1-2015) (enzyme)
- stoichiometry N [2]: 2

Molecule: 3xFlag-LRRK2 K1906M kinase dead mutant, full-length, Q5S007 1-2527
- stoichiometry N [3]: 2

Molecule: 3xFlag-LRRK1 wild-type (leucine-rich repeat kinase 1), full-length (from UniProt Q38SD2 1-2015) (enzyme)
- stoichiometry N [4]: 2

Molecule: 3xFlag-LRRK2 G2019S pathogenic mutant, full-length, Q5S007 1-2527
- stoichiometry N [5]: 2

B1: 3xFlag-LRRK1 kinase dead mutant (K1269M; printed K1269W in the dimer experiment), full-length (enzyme)
chain: METLNGAGDTGGKPSTRGGDPAARSRRTEGIRAAYRRGDRGGARDLLEEACDQCASQLEKGQLLSIPAAYGDLEMVRYLLSKRLVELPTEPTDDNPAVVAAYFGHTAVVQELLESLPGPCSPQRLLNWMLALACQRGHLGVVKLLVLTHGADPESYAVRKNEFPVIVRLPLYAAIKSGNEDIAIFLLRHGAYFCSYILLDSPDPSKHLLRKYFIEASPLPSSYPGKTALRVKWSHLRLPWVDLDWLIDISCQITELDLSANCLATLPSVIPWGLINLRKLNLSDNHLGELPGVQSSDEIICSRLLEIDISSNKLSHLPPGFLHLSKLQKLTASKNCLEKLFEEENATNWIGLRKLQELDISDNKLTELPALFLHSFKSLNSLNVSRNNLKVFPDPWACPLKCCKASRNALECLPDKMAVFWKNHLKDVDFSENALKEVPLGLFQLDALMFLRLQGNQLAALPPQEKWTCRQLKTLDLSRNQLGKNEDGLKTKRIAFFTTRGRQRSGTEAASVLEFPAFLSESLEVLCLNDNHLDTVPPSVCLLKSLSELYLGNNPGLRELPPELGQLGNLWQLDTEDLTISNVPAEIQKEGPKAMLSYLRAQLRKAEKCKLMKMIIVGPPRQGKSTLLEILQTGRAPQVVHGEATIRTTKWELQRPAGSRAKVESVEFNVWDIGGPASMATVNQCFFTDKALYVVVWNLALGEEAVANLQFWLLNIEAKAPNAVVLVVGTHLDLIEAKFRVERIATLRAYVLALCRSPSGSRATGFPDITFKHLHEISCKSLEGQEGLRQLIFHVTCSMKDVGSTIGCQRLAGRLIPRSYLSLQEAVLAEQQRRSRDDDVQYLTDRQLEQLVEQTPDNDIKDYEDLQSAISFLIETGTLLHFPDTSHGLRNLYFLDPIWLSECLQRIFNIKGSRSVAKNGVIRAEDLRMLLVGTGFTQQTEEQYFQFLAKFEIALPVANDSYLLPHLLPSKPGLDTHGMRHPTANTIQRVFKMSFVPVGFWQRFIARMLISLAEMDLQLFENKKNTKSRNRKVTIYSFTGNQRNRCSTFRVKRNQTIYWQEGLLVTFDGGYLSVESSDVNWKKKKSGGMKIVCQSEVRDFSAMAFITDHVNSLIDQWFPALTATESDGTPLMEQYVPCPVCETAWAQHTDPSEKSEDVQYFDMEDCVLTAIERDFISCPRHPDLPVPLQELVPELFMTDFPARLFLENSKLEHSEDEGSVLGQGGSGTVIYRARYQGQPVAVWRFHIKKFKNFANVPADTMLRHLRATDAMKNFSEFRQEASMLHALQHPCIVALIGISIHPLCFALELAPLSSLNTVLSENARDSSFIPLGHMLTQKIAYQIASGLAYLHKKNIIFCDLKSDNILVWSLDVKEHINIKLSDYGISRQSFHEGALGVEGTPGYQAPEIRPRIVYDEKVDMFSYGMVLYELLSGQRPALGHHQLQIAKKLSKGIRPVLGQPEEVQFRRLQALMMECWDTKPEKRPLALSVVSQMKDPTFATFMYELCCGKQTAFFSSQGQEYTVVFWDGKEESRNYTVVNTEKGLMEVQRMCCPGMKVSCQLQVQRSLWTATEDQKIYIYTLKGMCPLNTPQQALDTPAVVTCFLAVPVIKKNSYLVLAGLADGLVAVFPVVRGTPKDSCSYLCSHTANRSKFSIADEDARQNPYPVKAMEVVNSGSEVWYSNGPGLLVIDCASLEICRRLEPYMAPSMVTSVVCSSEGRGEEVVWCLDDKANSLVMYHSTTYQLCARYFCGVPSPLRDMFPVRPLDTEPPAASHTANPKVPEGDSIADVSIMYSEELGTQILIHQESLTDYCSMSSYSSSPPRQAARSPSSLPSSPASSSSVPFSTDCEDSDMLHTPGAASDRSEHDLTPMDGETFSQHLQAVKILAVRDLIWVPRRGGDVIVIGLEKDSGAQRGRVIAVLKARELTPHGVLVDAAVVAKDTVVCTFENENTEWCLAVWRGWGAREFDIFYQSYEELGRLEACTRKRR
- stoichiometry N [6]: 2
